From patent US20230391882A1 (NUMAB THERAPEUTICS, published 2023) come the findings set out here.

Common to all, as to experiment: cell-based or functional assay
The target in assay [1] is T1, mesothelin (MSLN) on target cells (H226, MeT-5A) (UniProt Q13421 37-598, limits assumed).
For assay [2], the target named is T1, mesothelin (MSLN) on target cells …. This is another data set of the same source.
The target of assay [3] is soluble mesothelin (sMSLN) (UniProt Q13421 296-580, limits assumed).
In assay [4] the target is T1, mesothelin (MSLN) on target cells …. The source holds these as a separate data set.
Assay [5] shares this target. This is another data set of the same source.
Assay [6] has the same target. The source holds these as a separate data set.
Assay [7] has the same target. This is another data set of the same source.
For assay [8] the target is unchanged. The source holds these as a separate data set.
Assay [9] shares this target. The source holds these as a separate data set.
For assay [10] the target is unchanged. This is another data set of the same source.

B1: PRO2000 (biMSLNlow affinity x CD3 x hSA) (other)
chain 1: DIQMTQSPSSLSASVGDRVTITCQASQNIYSNLAWYQQKPGKAPKLLIYDASDLASGVPSRFSGSGSGTDFTLTISSLQPEDFATYYCQQVRSSSDIDNPFGTGTKVTVLGGGGGSGGGGSGGGGSGGGGSQVQLVESGGGLVQPGGSLRLSCAASGFSLSSYAMGWVRQAPGKGLEWIGYISTINNTYYASWAKGRFTISRDNSKNTVYLQMNSLRAEDTAVYYCAREIRSGWVDYGFSIWGQGTLVTVSSGGGGSGGGGSEVQLVESGGGLVQPGGSLRLSCAASGFSLSSYDMSWVRQAPGKGLAWIGASYASGPTYYASWAKGRFTISRDNSKNTVYLQMNSLRAEDTATYFCARGGWTGTSHSNIWGQGTLVTVSSGGGSGGGSEVQLVESGGGLVQPGGSLRLSCAASGFSFSSSYWICWVRQAPGKCLEWVGCVFTGDGTTYYASWAKGRFTISRDNSKNTVYLQMNSLRAEDTATYFCARPVSVYYYGMDLWGQGTLVTVSS
chain 2: DIQMTQSPSSLSASVGDRVTITCQASQNIYSNLAWYQQKPGKAPKLLIYDASDLASGVPSRFSGSGSGTDFTLTISSLQPEDFATYYCQQVRSSSDIDNPFGTGTKVTVLGGGGGSGGGGSGGGGSGGGGSQVQLVESGGGLVQPGGSLRLSCAASGFSLSSYAMGWVRQAPGKGLEWIGYISTINNTYYASWAKGRFTISRDNSKNTVYLQMNSLRAEDTAVYYCAREIRSGWVDYGFSIWGQGTLVTVSSGGGGSGGGGSDVVMTQSPSSLSASVGDRVTITCQASQIISSRSAWYQQKPGQPPKLLIYQASKLASGVPSRFSGSGSGTDFTLTISSLQPEDFATYYCQCTYIDSNFGAFGCGTKLTVLGGGSGGSDIQMTQSPSSLSASVGDRVTITCQSSQSVFSNNYLAWFQQKPGQSPKRLIYSASTLASGVPSRFSGSGSGTDFTLTISSLQPEDFATYYCLGSYACSSADCYVFGTGTKVTVLG
For B1, the “EC50 (read off the curve); specific killing of H226 cells, in presence of 50 ng/ml sMSLN” value in assay [1] is approximately 30 pM. Further, the “EC50 (read off the curve); specific killing of H226 cells, no sMSLN” value in assay [2] is approximately 10 pM. For the same molecule, in assay [3], the “decrease of potency of T-cell driven target cell killing in the presence of 500 ng/ml soluble MSLN” value was 17 fold, the “increase of EC50 for killing high MSLN expressing target cells in the presence of 50 ng/ml sMSLN” value is not above 6 fold and the “increase of EC50 for killing high MSLN expressing target cells in the presence of 500 ng/ml sMSLN” value is not above 40 fold. Further, in assay [4], the “T-cell driven cytotoxicity assay: EC50 for killing high MSLN expressing target cells against EC50 for killing MeT-5A cells” value is not below 25 fold and the “specific killing of high MSLN expressing H226 cells by PBMCs in the presence of human serum albumin; killing potency against that of PRO1872” value stood at 75 fold. Besides, the “EC50 (read off the curve); specific killing of H226 cells (high MSLN)” value in [5] was approximately 0.07 pM. The “EC50 (read off the curve); specific killing of H226 cells, in presence of 500 ng/ml sMSLN” value in assay [6] is approximately 200 pM. The “EC50 (read off the curve); activated CD8+ cells (CD69+) with H226 cells, without sMSLN” value in assay [7] was approximately 2 pM. Besides, in [8], the “EC50 (read off the curve); specific killing of MeT-5A cells (low MSLN)” value is approximately 100 pM. Besides, in assay [9], the “EC50 (read off the curve); activated CD8+ cells (CD69+) with H226 cells, with 500 ng/ml sMSLN” value was approximately 40 pM. In assay [10], the “EC50 (read off the curve); activated CD8+ cells (CD69+) with H226 cells, with 50 ng/ml sMSLN” value is approximately 8 pM.
